Assay results reported in the Human Domainome abundance scans (Beltran et al. 2025).
± gives the uncertainty stated by the source.

B1: Integrator complex subunit 12, residues 155 to 213; numbered along this chain, Q96CB8 (parent)
chain: AMEMGLACVVCRQMMVASGNQLVECQECHNLYHRDCHKPQVTDKEANDPRLVWYCARCT

Variants of: B1
Test: abundance fitness (aPCA) (normalised: wild type 0, dead -1); higher = more abundant; growth selection in yeast, the domain comes from the species named
Conditions: Homo sapiens

| Variant | abundance fitness |
| --- | --- |
| M15I | 0.028 ± 0.034 |
| D48W | -0.149 ± 0.069 |
| K44Q | -0.081 ± 0.072 |
| V9R | -0.181 ± 0.04 |
| N47H | 0.011 ± 0.073 |
| H33V | -0.767 ± 0.037 |
| R34L | 0.037 ± 0.045 |
| D48R | -0.154 ± 0.044 |
| P49K | 0.001 ± 0.072 |
| R57A | -0.018 ± 0.039 |
| D35R | -0.029 ± 0.034 |
| W53L | -0.283 ± 0.049 |
| T59F | -0.254 ± 0.14 |
| Q13F | -0.354 ± 0.035 |
| Q13G | -0.17 ± 0.044 |
| H33N | -0.584 ± 0.04 |
| T42F | -0.24 ± 0.094 |
| G19P | -0.069 ± 0.095 |
| L31A | 0.04 ± 0.033 |
| H33T | -0.85 ± 0.057 |
| N47K | -0.046 ± 0.066 |
| H37K | -0.379 ± 0.069 |
| Y54W | -0.222 ± 0.063 |
| A46T | -0.136 ± 0.068 |

| Variant | abundance fitness |
| --- | --- |
| Y32E | -0.388 ± 0.068 |
| A46E | -0.061 ± 0.053 |
| Q13W | -0.758 ± 0.07 |
| R57S | -0.026 ± 0.043 |
| C58H | -0.287 ± 0.075 |
| E45I | -0.213 ± 0.1 |
| N30C | 0.013 ± 0.044 |
| C11S | -0.877 ± 0.046 |
| M14A | 0.06 ± 0.043 |
| C58I | -1.39 ± 0.24 |
| N20C | -0.098 ± 0.035 |
| A56S | -0.054 ± 0.047 |
| H29M | -0.097 ± 0.058 |
| G5K | 0.143 ± 0.053 |
| T59N | -0.205 ± 0.16 |
| Q13M | -0.132 ± 0.05 |
| V23W | -0.045 ± 0.055 |
| M14T | 0.016 ± 0.064 |
| A1C | -0.099 ± 0.12 |
| N20P | -0.011 ± 0.048 |
| R57E | -0.013 ± 0.043 |
| Q40P | -0.009 ± 0.051 |
| E45G | -0.222 ± 0.049 |
| Q40W | -0.102 ± 0.057 |

| Variant | abundance fitness |
| --- | --- |
| L31E | -0.358 ± 0.059 |
| L31M | -0.008 ± 0.051 |
| N30D | 0.079 ± 0.041 |
| D43L | -0.098 ± 0.034 |
| M2R | -0.054 ± 0.038 |
| E27P | -0.67 ± 0.06 |
| D48E | -0.054 ± 0.052 |
| N47G | 0.02 ± 0.053 |
| R50C | -0.104 ± 0.12 |
| M15F | -0.053 ± 0.033 |
| C11T | -0.933 ± 0.061 |
| G19A | -0.042 ± 0.042 |
| Q40C | 0.148 ± 0.062 |
| Y32A | -0.128 ± 0.039 |
| N47A | -0.166 ± 0.053 |
| M4Y | -0.168 ± 0.036 |
| E24V | -0.262 ± 0.039 |
| N30T | -0.105 ± 0.058 |
| Q26K | -0.039 ± 0.062 |
| A1M | 0.03 ± 0.2 |
| V16K | 0.03 ± 0.065 |
| H37G | -0.148 ± 0.033 |
| Y32G | -0.335 ± 0.035 |
| M4W | -0.43 ± 0.064 |

| Variant | abundance fitness |
| --- | --- |
| K44I | 0.024 ± 0.082 |
| R50G | 0.014 ± 0.049 |
| N30F | -0.179 ± 0.045 |
| N30I | -0.231 ± 0.041 |
| V10C | -0.193 ± 0.041 |
| L31N | 0.027 ± 0.036 |
| C11D | -0.818 ± 0.064 |
| D43P | -0.093 ± 0.041 |
| C11A | -0.937 ± 0.078 |
| Y32T | -0.263 ± 0.044 |
| Y32W | 0.045 ± 0.058 |
| R12V | -0.463 ± 0.041 |
| N47T | -0.075 ± 0.05 |
| C36W | -0.843 ± 0.079 |
| V10F | -0.241 ± 0.034 |
| D35I | -0.079 ± 0.035 |
| G5E | 0.066 ± 0.067 |
| T42W | -0.198 ± 0.048 |
| Y54V | -0.068 ± 0.045 |
| H33W | -1.21 ± 0.14 |
| R50W | -0.206 ± 0.093 |
| G19W | -0.286 ± 0.065 |
| V16E | 0.029 ± 0.054 |
| D43H | -0.155 ± 0.071 |

| Variant | abundance fitness |
| --- | --- |
| A7W | -0.41 ± 0.078 |
| K38P | -0.309 ± 0.05 |
| V10T | -0.46 ± 0.04 |
| V10A | -0.059 ± 0.041 |
| Q21Y | -0.117 ± 0.039 |
| L51Y | -0.169 ± 0.071 |
| A1H | 0.245 ± 0.17 |
| E24D | -0.117 ± 0.045 |
| C55G | -0.913 ± 0.06 |
| V41H | -0.639 ± 0.11 |
| E3I | -0.238 ± 0.041 |
| L51Q | 0.02 ± 0.055 |
| A17K | 0.037 ± 0.06 |
| E27Q | -0.096 ± 0.083 |
| C58A | -0.869 ± 0.07 |
| M2Y | -0.127 ± 0.044 |
| N30Q | 0.028 ± 0.084 |
| L22R | -0.153 ± 0.037 |
| C58P | -0.762 ± 0.13 |
| D43F | -0.118 ± 0.082 |
| N20S | -0.036 ± 0.03 |
| N20E | -0.007 ± 0.075 |
| A56F | -0.265 ± 0.069 |
| L6C | -0.054 ± 0.037 |

| Variant | abundance fitness |
| --- | --- |
| Y32H | -0.254 ± 0.047 |
| E24F | -0.459 ± 0.041 |
| V52C | -0.009 ± 0.092 |
| L51P | 0.035 ± 0.06 |
| Q13E | -0.074 ± 0.087 |
| Y32R | -0.308 ± 0.038 |
| Y54H | 0.119 ± 0.082 |
| V9C | 0.049 ± 0.041 |
| K44A | 0.008 ± 0.046 |
| L22I | -0.036 ± 0.042 |
| D35Y | -0.074 ± 0.034 |
| Q26E | -0.013 ± 0.086 |
| A17C | -0.048 ± 0.038 |
| A46Q | -0.079 ± 0.062 |
| Q13K | 0.011 ± 0.056 |
| N30R | -0.01 ± 0.04 |
| G5L | -0.216 ± 0.038 |
| R50S | 0.057 ± 0.059 |
| V23N | -0.228 ± 0.037 |
| L22K | 0.01 ± 0.078 |
| G5V | -0.13 ± 0.033 |
| C8Q | -0.71 ± 0.076 |
| C36E | -0.696 ± 0.066 |
| L22Y | 0.039 ± 0.04 |

| Variant | abundance fitness |
| --- | --- |
| A7F | -0.172 ± 0.038 |
| P39G | -0.28 ± 0.041 |
| E24C | -0.219 ± 0.043 |
| C11Y | -1 ± 0.05 |
| G19Q | -0.175 ± 0.11 |
| C11Q | -1 ± 0.1 |
| M14I | 0.028 ± 0.042 |
| T59W | -0.387 ± 0.12 |
| C58F | -1.11 ± 0.18 |
| A46H | -0.181 ± 0.072 |
| Y54S | 0.04 ± 0.052 |
| L31H | 0.057 ± 0.04 |
| Q26I | -0.155 ± 0.043 |
| Y32K | -0.514 ± 0.066 |
| V23H | -0.075 ± 0.044 |
| E3V | -0.119 ± 0.033 |
| A46C | -0.149 ± 0.067 |
| E24S | -0.236 ± 0.036 |
| C25W | -0.959 ± 0.25 |
| L22W | -0.113 ± 0.05 |
| R57M | -0.134 ± 0.046 |
| M14S | 0.073 ± 0.032 |
| Q26P | -0.014 ± 0.06 |
